Test results as given in paper PMC5059719, “Tetrameric structure of the restriction DNA glycosylase R.PabI in complex with nonspecific double-stranded DNA” (Scientific Reports, 2016).
Where a chain is given by its changes, count along the chain named. In names and notes the source's numbering stands. Values belong to the binder of their own block, whether it stands above or below them.

Assays:
[1] = target: R.PabI Y68F R70D mutant, residues 8-226 (Pyrococcus abyssi) (UniProt Q9V2B6)
[2] = target: the molecule itself; experiment: cell-based or functional assay
[3] = target: R.PabI Y68F R70D D71R mutant, residues 8-226 (Pyrococcus abyssi) (UniProt Q9V2B6)
[4] = target: the molecule itself; experiment: crystal structure; R.PabI R32A E63A dimer co-crystallised with 20 bp blunt-ended nonspecific dsDNA (dsDNA:dimer 1:2) in 10 mM MES pH 6.0, 100 mM NaCl; sitting drop, 20 °C; one dimer in the asymmetric unit, tetramer = two dimers related by the crystallographic two-fold axis, sandwiching the dsDNA

DNA glycosylase activity relative to the Y68F control, 24 bp dsDNA substrate [1]: 127%
DNA glycosylase activity relative to the Y68F control, 500 bp dsDNA substrate [1]: 76%
DNA glycosylase activity relative to the Y68F control, 3000 bp dsDNA substrate [1]: 19%
B1: R.PabI Y68F R70D mutant, residues 8-226 (enzyme)
chain: EASVSFENGKIVVRLPITRPTSKIRVKKIENGVGIPVSTRKKSFPSDENLRDYYIEWQISFADDGKYDYELSRMVRLAHEHGILTYNDIYELLKFADDVKSYLEDKGIRRESTNEELYGFNIYEDVYPVAKKELPSGEFIGIVLKHKQRAVGYQSMVYVCIPLTNVEPSLAGRVARRNEVVKYEVPVDLMKELLKAFIIASETHKNDIVKFLRSIIGTS

B2: R.PabI Y68F D71R mutant, residues 8-226 (enzyme, Pyrococcus abyssi, UniProt Q9V2B6 8-226, looked up)
chain: B1 chain with D63R, D64R
DNA glycosylase activity relative to the Y68F control, 24 bp dsDNA substrate [2]: 74%
DNA glycosylase activity relative to the Y68F control, 500 bp dsDNA substrate [2]: 34%
DNA glycosylase activity relative to the Y68F control, 3000 bp dsDNA substrate [2]: 19%

DNA glycosylase activity relative to the Y68F control, 24 bp dsDNA substrate [3]: 105%
DNA glycosylase activity relative to the Y68F control, 500 bp dsDNA substrate [3]: 71%
DNA glycosylase activity relative to the Y68F control, 3000 bp dsDNA substrate [3]: 40%
B3: R.PabI Y68F R70D D71R mutant, residues 8-226 (enzyme)
chain: B1 chain with D64R

B4: R.PabI R32A E63A double mutant, residues 8-226 (enzyme, Pyrococcus abyssi, UniProt Q9V2B6 8-226, looked up)
chain: B1 chain with R25A, E56A, F61Y, D63R
notes: R.PabI, type II restriction enzyme (restriction DNA glycosylase) of Pyrococcus abyssi, residues 8-226, with R32A and E63A; Cloned into the NdeI-BamHI site of pET26b; also called protomers A and B; source: E. coli Rosetta(DE3)pLysS, purified (heat treatment, heparin column, MonoS)
stoichiometry N [4]: 2
